Where a chain is given by its changes, count along the chain named. In names and notes the source's numbering stands. Several values for one entry are separate records, joined by “and”; a condition that tells them apart may be missing. Equal values may be shown once.
B1: SYCP1αNcore (amino-acids 206-362) (domain or fragment, human, UniProt Q15431 206-362, looked up)
chain: ETRQVYMDLNNNIEKMITAFEELRVQAENSRLEMHFKLKEDYEKIQHLEQEYKKEINDKEKQVSLLLIQITEKENKMKDLTFLLEESRDKVNQLEEKTKLQSENLKQSIEKQHHLTKELEDIKVSLQRSVSTQKALEEDLQIATKTICQLTEEKETQ
notes: SYCP1 αNcore (tetrameric core), amino-acids 206-362; Tetramer alone (SEC-MALS); two chains in the 2:1 complex with SYCE3; also called SYCP1 tetrameric core; source: E. coli BL21(DE3), purified alone or co-expressed and co-purified with SYCE3 (amylose, TEV, anion exchange, SEC); not shown: MBP, N-terminal, cleaved
B2: SYCE3 P53Q (natural protein, human, UniProt A1L190 1-88, looked up)
chain: MDDADPEERNYDNMLKMLSDLNKDLEKLLEEMEKISVQATWMAYDMVVMRTNQTLAESMRRLEDAFVNCKEEMEKNWQELLHETKQRL
notes: SYCE3 with P53Q; source: E. coli BL21(DE3), co-purified with SYCP1αNcore; not shown: His or His-MBP, N-terminal, cleaved
B3: SYCE3 α1-α2 (amino-acids 12-88) (domain or fragment, human, UniProt A1L190 12-88, looked up)
chain: DNMLKMLSDLNKDLEKLLEEMEKISVQATWMAYDMVVMRTNPTLAESMRRLEDAFVNCKEEMEKNWQELLHETKQRL
notes: SYCE3 α1-α2, amino-acids 12-88; source: E. coli BL21(DE3), co-purified with SYCP1αNcore; not shown: His or His-MBP, N-terminal, cleaved
B4: SYCP1αN (amino-acids 101-362) (domain or fragment, human, UniProt Q15431 101-362, looked up)
chain: GLSRVYSKLYKEAEKIKKWKVSTEAELRQKESKLQENRKIIEAQRKAIQELQFGNEKVSLKLEEGIQENKDLIKENNATRHLCNLLKETCARSAEKTKKYEYEREETRQVYMDLNNNIEKMITAFEELRVQAENSRLEMHFKLKEDYEKIQHLEQEYKKEINDKEKQVSLLLIQITEKENKMKDLTFLLEESRDKVNQLEEKTKLQSENLKQSIEKQHHLTKELEDIKVSLQRSVSTQKALEEDLQIATKTICQLTEEKETQ
notes: SYCP1 α-helical N-terminal region, amino-acids 101-362; source: E. coli BL21(DE3), purified, alone or co-expressed and co-purified with SYCE3
B5: SYCP1αN V105E L109E (domain or fragment, human, UniProt Q15431 101-362, looked up)
chain: B4 chain with V5E, L9E
notes: SYCP1αN, amino-acids 101-362, with V105E L109E; source: E. coli BL21(DE3), in complex with SYCE3
B6: MBP-SYCP1αN (domain or fragment, human, UniProt Q15431 101-362, looked up)
chain: B4 chain
notes: SYCP1αN, amino-acids 101-362; source: E. coli BL21(DE3), co-purified with His-SYCE3
B7: SYCP1αN ΔNtip (domain or fragment, human, UniProt Q15431 112-362, looked up)
chain: EAEKIKKWKVSTEAELRQKESKLQENRKIIEAQRKAIQELQFGNEKVSLKLEEGIQENKDLIKENNATRHLCNLLKETCARSAEKTKKYEYEREETRQVYMDLNNNIEKMITAFEELRVQAENSRLEMHFKLKEDYEKIQHLEQEYKKEINDKEKQVSLLLIQITEKENKMKDLTFLLEESRDKVNQLEEKTKLQSENLKQSIEKQHHLTKELEDIKVSLQRSVSTQKALEEDLQIATKTICQLTEEKETQ
notes: SYCP1αN (101-362) with the αNtip (101-111) deleted; also called SYCP1 ΔNtip; source: E. coli BL21(DE3), co-purified with SYCE3
B8: MBP-SYCP1αNcore (amino-acids 206-362) (domain or fragment, human, UniProt Q15431 206-362, looked up)
chain: B1 chain
notes: SYCP1 αNcore (tetrameric core), amino-acids 206-362; source: E. coli BL21(DE3), co-expressed with SYCE3 constructs; in lysate (amylose pull-down) or co-purified (amylose, anion exchange, SEC); not shown: MBP, N-terminal, kept

Biological target: the molecule itself
Assay: SEC-MALS; proteins in isolation, 5-20 mg/ml; Superdex 200 Increase, 20 mM Tris pH 8.0, 150 mM KCl, 2 mM DTT
Conditions: not given

| Binder | stoichiometry N |
| --- | --- |
| B1 | 4 |

Each binder was assayed against B1 (assay: SEC-MALS; co-expressed and co-purified SYCP1-SYCE3 complexes, 5-20 mg/ml; 20 mM Tris pH 8.0, 150 mM KCl, 2 mM DTT (Superose 6 Increase for MBP-SYCP1αN-His-SYCE3)). Conditions: both partners purified.

| Binder | stoichiometry N |
| --- | --- |
| B2 | 2 SYCP1 chains per SYCE3 chain |
| B3 | 2 SYCP1 chains per SYCE3 chain |

Biological target: the molecule itself
Assay: as above
Conditions: not given

| Binder | stoichiometry N |
| --- | --- |
| B4 | 2 SYCP1 chains in the 2:1 complex with SYCE3 and 4 SYCP1 chains in the 4:2 complex with SYCE3 |
| B5 | 2 SYCP1 chains in the complex with SYCE3 |
| B6 | 2 SYCP1 chains in the 2:1 complex with SYCE3 and 4 SYCP1 chains in the 4:2 complex with SYCE3 |
| B7 | 2 SYCP1 chains in the complex with SYCE3 |
| B1 | 2 SYCP1 chains in the complex with SYCE3 |
| B8 | 2 SYCP1 chains in the complex with SYCE3 |

Reference: paper PMC7614228, “Structural maturation of SYCP1-mediated meiotic chromosome synapsis by SYCE3” (Nature structural & molecular biology, 2023)
